Data taken from patent US20230203178A1 (SICHUAN KELUN BIOTECH BIOPHARMACEUTICAL, published 2023).

B1: TanCAR 04 (other)
chain: QVTLRESGPALVKPTQTLTLTCTFSGVSLPDYGVSWIRQPPGKALEWLAVIWGSETTYYNSALKSRLTISKDTSKNQVVLTMTNMDPVDTATYYCAKHYYYGGSYAMDYWGQGTTVTVSSGGGGSGGGGSGGGGSEIVLTQSPATLSLSPGERATLSCRASQDISKYLNWYQQKPGQAPRLLIYHTSRLHSGIPDRFSGSGSGTDFTLTISRLEPEDIAVYYCQQGNTLPYTFGQGTKLEIEAAAKEAAAKEAAAKDIVMTQSPLSLPVTPGEPASISCRSSQSLVHSNGNTFLHWYLQKPGQSPQLLIYKVSNRFSGVPDRFSGSGSGTDFTLKISRVEAEDVGVYYCMQSTHVLTFGGGTKLEIKRAGGGGSGGGGSGGGGSQVQLVQSGAEVKKPGASVKVSCKASGYTFTDYLMHWVRQAPGQGLEWMGWINTETGEPTYADDFKGRVTMTRDTSTSTVYMELSSLRSEDTAVYYCAPSLYYGYSWFTYWGQGTLVTVSTTTPAPRPPTPAPTIASQPLSLRPEACRPAAGGAVHTRGLDFACDIYIWAPLAGTCGVLLLSLVITLYCKRGRKKLLYIFKQPFMRPVQTTQEEDGCSCRFPEEEEGGCELRVKFSRSADAPAYKQGQNQLYNELNLGRREEYDVLDKRRGRDPEMGGKPRRKNPQEGLYNELQKDKMAEAYSEIGMKGERRRGKGHDGLYQGLSTATKDTYDALHMQALPPR
notes: Tandem bispecific chimeric antigen receptor on human T cells; built here from its parts without the signal peptide; also called TanCAR 04 CAR-T
B2: H-BCMA CAR (other)
chain: DIVMTQSPLSLPVTPGEPASISCRSSQSLVHSNGNTFLHWYLQKPGQSPQLLIYKVSNRFSGVPDRFSGSGSGTDFTLKISRVEAEDVGVYYCMQSTHVLTFGGGTKLEIKRAGGGGSGGGGSGGGGSQVQLVQSGAEVKKPGASVKVSCKASGYTFTDYLMHWVRQAPGQGLEWMGWINTETGEPTYADDFKGRVTMTRDTSTSTVYMELSSLRSEDTAVYYCAPSLYYGYSWFTYWGQGTLVTVSTTTPAPRPPTPAPTIASQPLSLRPEACRPAAGGAVHTRGLDFACDIYIWAPLAGTCGVLLLSLVITLYCKRGRKKLLYIFKQPFMRPVQTTQEEDGCSCRFPEEEEGGCELRVKFSRSADAPAYKQGQNQLYNELNLGRREEYDVLDKRRGRDPEMGGKPRRKNPQEGLYNELQKDKMAEAYSEIGMKGERRRGKGHDGLYQGLSTATKDTYDALHMQALPPR
notes: Chimeric antigen receptor on human T cells; built here from its parts without the signal peptide; also called H-BCMA CAR-T; BCMA CAR-T
B3: TanCAR 01 (other)
chain: DIVMTQSPLSLPVTPGEPASISCRSSQSLVHSNGNTFLHWYLQKPGQSPQLLIYKVSNRFSGVPDRFSGSGSGTDFTLKISRVEAEDVGVYYCMQSTHVLTFGGGTKLEIKRAGGGGSGGGGSGGGGSQVQLVQSGAEVKKPGASVKVSCKASGYTFTDYLMHWVRQAPGQGLEWMGWINTETGEPTYADDFKGRVTMTRDTSTSTVYMELSSLRSEDTAVYYCAPSLYYGYSWFTYWGQGTLVTVSGGGGSGGGGSGGGGSGGGGSQVTLRESGPALVKPTQTLTLTCTFSGVSLPDYGVSWIRQPPGKALEWLAVIWGSETTYYNSALKSRLTISKDTSKNQVVLTMTNMDPVDTATYYCAKHYYYGGSYAMDYWGQGTTVTVSSGGGGSGGGGSGGGGSEIVLTQSPATLSLSPGERATLSCRASQDISKYLNWYQQKPGQAPRLLIYHTSRLHSGIPDRFSGSGSGTDFTLTISRLEPEDIAVYYCQQGNTLPYTFGQGTKLEITTTPAPRPPTPAPTIASQPLSLRPEACRPAAGGAVHTRGLDFACDIYIWAPLAGTCGVLLLSLVITLYCKRGRKKLLYIFKQPFMRPVQTTQEEDGCSCRFPEEEEGGCELRVKFSRSADAPAYKQGQNQLYNELNLGRREEYDVLDKRRGRDPEMGGKPRRKNPQEGLYNELQKDKMAEAYSEIGMKGERRRGKGHDGLYQGLSTATKDTYDALHMQALPPR
notes: Tandem bispecific chimeric antigen receptor on human T cells; built here from its parts without the signal peptide; also called TanCAR 01 CAR-T
B4: TanCAR 03 (other)
chain: QVTLRESGPALVKPTQTLTLTCTFSGVSLPDYGVSWIRQPPGKALEWLAVIWGSETTYYNSALKSRLTISKDTSKNQVVLTMTNMDPVDTATYYCAKHYYYGGSYAMDYWGQGTTVTVSSGGGGSGGGGSGGGGSEIVLTQSPATLSLSPGERATLSCRASQDISKYLNWYQQKPGQAPRLLIYHTSRLHSGIPDRFSGSGSGTDFTLTISRLEPEDIAVYYCQQGNTLPYTFGQGTKLEIGGGGSGGGGSGGGGSGGGGSDIVMTQSPLSLPVTPGEPASISCRSSQSLVHSNGNTFLHWYLQKPGQSPQLLIYKVSNRFSGVPDRFSGSGSGTDFTLKISRVEAEDVGVYYCMQSTHVLTFGGGTKLEIKRAGGGGSGGGGSGGGGSQVQLVQSGAEVKKPGASVKVSCKASGYTFTDYLMHWVRQAPGQGLEWMGWINTETGEPTYADDFKGRVTMTRDTSTSTVYMELSSLRSEDTAVYYCAPSLYYGYSWFTYWGQGTLVTVSTTTPAPRPPTPAPTIASQPLSLRPEACRPAAGGAVHTRGLDFACDIYIWAPLAGTCGVLLLSLVITLYCKRGRKKLLYIFKQPFMRPVQTTQEEDGCSCRFPEEEEGGCELRVKFSRSADAPAYKQGQNQLYNELNLGRREEYDVLDKRRGRDPEMGGKPRRKNPQEGLYNELQKDKMAEAYSEIGMKGERRRGKGHDGLYQGLSTATKDTYDALHMQALPPR
notes: Tandem bispecific chimeric antigen receptor on human T cells; built here from its parts without the signal peptide; also called TanCAR 03 CAR-T
B5: H-CD19 CAR (other)
chain: QVTLRESGPALVKPTQTLTLTCTFSGVSLPDYGVSWIRQPPGKALEWLAVIWGSETTYYNSALKSRLTISKDTSKNQVVLTMTNMDPVDTATYYCAKHYYYGGSYAMDYWGQGTTVTVSSGGGGSGGGGSGGGGSEIVLTQSPATLSLSPGERATLSCRASQDISKYLNWYQQKPGQAPRLLIYHTSRLHSGIPDRFSGSGSGTDFTLTISRLEPEDIAVYYCQQGNTLPYTFGQGTKLEITTTPAPRPPTPAPTIASQPLSLRPEACRPAAGGAVHTRGLDFACDIYIWAPLAGTCGVLLLSLVITLYCKRGRKKLLYIFKQPFMRPVQTTQEEDGCSCRFPEEEEGGCELRVKFSRSADAPAYKQGQNQLYNELNLGRREEYDVLDKRRGRDPEMGGKPRRKNPQEGLYNELQKDKMAEAYSEIGMKGERRRGKGHDGLYQGLSTATKDTYDALHMQALPPR
notes: Chimeric antigen receptor on human T cells; built here from its parts without the signal peptide; also called H-CD19 CAR-T; hCD19 CAR-T

The binders below were run against T1, BCMA expressed on target cells (CHO-K1-BCMA recombinant cell line; MM.1S; RPMI8226) (human, UniProt Q02223 1-184) (assay: cell-based or functional assay).
T1 sequence (looked up): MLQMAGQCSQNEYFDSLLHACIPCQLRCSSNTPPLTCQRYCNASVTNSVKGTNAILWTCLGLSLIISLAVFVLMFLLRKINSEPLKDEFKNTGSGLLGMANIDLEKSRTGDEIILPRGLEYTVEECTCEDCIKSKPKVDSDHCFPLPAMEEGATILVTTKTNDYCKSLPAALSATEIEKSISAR

Binder | lysis rate of CHO-K1-BCMA-luc cells by CAR-T cells, ratio 0.25:1 | lysis rate of CHO-K1-BCMA-luc cells by CAR-T cells, ratio 0.5:1 | lysis rate of CHO-K1-BCMA-luc cells by CAR-T cells, ratio 1:1 | lysis rate of CHO-K1-BCMA-luc cells by CAR-T cells, ratio 2:1
B1 | 36.4% | 52.6% | 68.9% | 84.1%
B2 | 0% | 27% | 40.7% | 77.9%
B3 | 31.3% | 34.3% | 63.2% | 71%
B4 | 17.8% | 27.6% | 40.5% | 52.1%

These binders were tested against T2, CD19 expressed on Nalm6 cells (UniProt P15391 20-556, limits assumed) (assay: cell-based or functional assay).
T2 sequence (looked up): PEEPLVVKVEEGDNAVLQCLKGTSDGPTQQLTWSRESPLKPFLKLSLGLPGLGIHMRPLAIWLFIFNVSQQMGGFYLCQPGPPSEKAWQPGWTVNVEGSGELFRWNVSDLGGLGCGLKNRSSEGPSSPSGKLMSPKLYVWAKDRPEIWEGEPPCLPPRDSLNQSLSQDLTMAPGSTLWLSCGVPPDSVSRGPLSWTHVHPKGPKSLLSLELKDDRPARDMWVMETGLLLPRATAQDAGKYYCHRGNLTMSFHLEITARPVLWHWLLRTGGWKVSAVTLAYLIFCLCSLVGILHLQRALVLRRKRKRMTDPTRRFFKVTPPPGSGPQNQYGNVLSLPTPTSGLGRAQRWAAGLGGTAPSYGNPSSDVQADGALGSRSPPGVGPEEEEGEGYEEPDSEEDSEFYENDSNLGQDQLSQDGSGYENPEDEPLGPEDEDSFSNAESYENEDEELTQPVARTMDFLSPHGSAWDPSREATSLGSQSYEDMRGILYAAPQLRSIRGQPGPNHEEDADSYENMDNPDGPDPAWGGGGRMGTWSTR

Binder | lysis rate of Nalm6-luc cells by CAR-T cells, ratio 0.25:1 | lysis rate of Nalm6-luc cells by CAR-T cells, ratio 0.5:1 | lysis rate of Nalm6-luc cells by CAR-T cells, ratio 1:1 | lysis rate of Nalm6-luc cells by CAR-T cells, ratio 2:1
B1 | 72.7% | 55.8% | 68.9% | 84.1%
B5 | 48% | 55% | 72.8% | 86.4%
B3 | 46.1% | 40% | 56.8% | 80.6%
B4 | 54.3% | 57.7% | 72.1% | 89.1%

These binders were tested against T3, human BCMA (antigen) (human, UniProt Q02223 1-54, limits assumed) (assay: flow cytometry of lentivirus-transduced T cells labelled with antigen, 48 h after transduction; percent positive cells).
T3 construct: Antigen coupled to the CM5 chip in SPR; also called B-cell maturation antigen; TNFRF17
T3 sequence (looked up): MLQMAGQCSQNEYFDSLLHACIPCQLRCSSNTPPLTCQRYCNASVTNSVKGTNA
From the text: (§1) The nucleic acid sequence encoding the CAR was expressed under the drive of a promoter, therefore the lentivirus-transfected T cells could be labeled with an antigen or anti-CD19 antibody and measured by flow cytometry, to reflect the expression level of the CAR on the surface of the T cells.

Binder | Positive rate of binding to BCMA
B1 | 15.9%
B5 | 0.98%
B2 | 26.9%
B3 | 11.3%
B4 | 6.07%

Each binder was assayed against T4, human CD19 (antigen) (human, UniProt P15391 20-291, limits assumed) (assay: flow cytometry of lentivirus-transduced T cells labelled with antigen or anti-CD19 antibody, 48 h after transduction; percent positive cells).
T4 sequence (looked up): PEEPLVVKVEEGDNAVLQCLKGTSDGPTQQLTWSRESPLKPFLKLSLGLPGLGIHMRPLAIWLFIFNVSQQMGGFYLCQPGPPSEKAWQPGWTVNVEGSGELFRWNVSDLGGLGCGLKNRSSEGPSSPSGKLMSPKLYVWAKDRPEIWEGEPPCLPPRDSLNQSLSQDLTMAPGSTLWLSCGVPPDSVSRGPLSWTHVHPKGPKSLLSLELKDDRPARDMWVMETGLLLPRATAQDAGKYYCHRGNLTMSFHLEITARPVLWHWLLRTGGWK
From the text: as §1

Binder | Positive rate of binding to CD19
B1 | 16.1%
B5 | 14.7%
B2 | 0.31%
B3 | 10.6%
B4 | 8.99%
